Where “and” joins values, the source holds several entries; their conditions need not be identical. Equal entries are not always repeated.
Molecular target: T1, CD163 on CD14+ peripheral blood monocytes (Homo sapiens, UniProt Q86VB7)
T1 construct: endogenous in cells; host or cells: human peripheral blood monocytes, monocyte-derived macrophages, blood dendritic cells
Assay: Quantitative flow cytometry of monocyte surface CD163 expression with different anti-CD163 clones
Type: cell-based
Method: Freshly drawn peripheral whole blood samples or PBMC (approx. 3×10^6 cells) were stained with isotype-matched control antibody or a relevant antibody for one hour at 4° C. in the dark. When staining whole blood, erythrocytes were lysed for 15 min with 4° C. cold solution of ammonium chloride. When indirect immunofluoresence staining was required, cells were initially incubated with unconjugated primary CD163 antibody for one hour at 4° C., washed three times with D-PBS, pH 7.4, followed by incubation with goat anti-mouse-conjugated Alexa-Fluor® 488 (1:200 dilution; Molecular Probes, Invitrogen, Carlsbad, Calif., USA) for one hour at 4° C. in the dark. The stained cells were washed twice three D-PBS, pH 7.4, re-suspended in 400 μl FACSflow (Becton Dickinson, San Jose, Calif., USA), and kept on ice until analysis. All samples were analyzed using a FACSCalibur flow cytometer and compensated for spectral overlap using FlowJo for Macintosh software version 8.3 (TreeStar, San Carlos, Calif.). For CD163 density quantitation, flow cytometric estimation of antibodies bound/cell (ABCs) was performed using Quantibrite PE beads (Becton Dickinson, San Jose, Calif., USA) as recommended by the manufacturer. After the cells were stained, as detailed, a set of 4 pre-calibrated fluorescently labeled beads was used for standardization before the samples were acquired. The Quantibrite PE beads were run at the same instrument settings as the assay, and the linear regression obtained using the Quantibrite PE beads was used to convert the FL2 linear fluorescence staining of cell population into the number of (CD163) PE molecules bound per cell (ABC).

T1 sequence (Q86VB7 42-1156): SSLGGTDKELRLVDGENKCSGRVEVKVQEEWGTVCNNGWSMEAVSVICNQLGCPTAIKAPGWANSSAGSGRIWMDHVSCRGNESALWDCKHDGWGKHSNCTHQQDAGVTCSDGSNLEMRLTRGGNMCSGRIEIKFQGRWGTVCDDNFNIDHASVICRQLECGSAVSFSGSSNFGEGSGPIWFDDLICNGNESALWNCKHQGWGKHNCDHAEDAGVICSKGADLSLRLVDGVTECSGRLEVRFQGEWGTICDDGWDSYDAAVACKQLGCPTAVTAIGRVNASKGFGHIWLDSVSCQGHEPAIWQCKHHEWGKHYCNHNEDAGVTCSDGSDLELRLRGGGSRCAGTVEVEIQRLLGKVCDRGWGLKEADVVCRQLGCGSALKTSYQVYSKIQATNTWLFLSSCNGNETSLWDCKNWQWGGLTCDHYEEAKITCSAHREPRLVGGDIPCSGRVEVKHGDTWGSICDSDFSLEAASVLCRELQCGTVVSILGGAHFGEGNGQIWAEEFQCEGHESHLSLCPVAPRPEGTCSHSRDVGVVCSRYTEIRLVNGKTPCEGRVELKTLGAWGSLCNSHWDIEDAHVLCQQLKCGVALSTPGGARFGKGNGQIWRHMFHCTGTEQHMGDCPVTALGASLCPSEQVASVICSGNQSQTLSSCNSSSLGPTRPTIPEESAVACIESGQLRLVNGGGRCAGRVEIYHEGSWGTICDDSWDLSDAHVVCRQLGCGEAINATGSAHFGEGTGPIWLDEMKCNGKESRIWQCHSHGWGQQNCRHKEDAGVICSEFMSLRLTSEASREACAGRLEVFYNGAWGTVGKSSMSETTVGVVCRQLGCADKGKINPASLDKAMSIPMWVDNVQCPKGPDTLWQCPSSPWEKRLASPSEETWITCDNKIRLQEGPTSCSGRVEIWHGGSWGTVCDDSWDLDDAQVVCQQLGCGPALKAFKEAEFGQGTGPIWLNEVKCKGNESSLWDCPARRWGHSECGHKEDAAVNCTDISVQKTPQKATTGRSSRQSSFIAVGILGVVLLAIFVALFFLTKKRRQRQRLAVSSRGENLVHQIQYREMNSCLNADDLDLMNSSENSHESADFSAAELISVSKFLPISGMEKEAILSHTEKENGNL

B1: Mac2-158: murine anti-human CD163 mAb binding SRCR domain 1; VH SEQ ID NO:20, VL SEQ ID NO:21; IQ Products (antibody, V domains shown)
VH: DVQLQESGPGLVKPSQSLSLTCTVTGYSITSDYAWNWIRQFPGNKLEWMGYITYSGITNYNPSLKSQISITRDTSKNQFFLQLNSVTTEDTATYYCVSGTYYFDYWGQGTTLTVSS
VL: SVVMTQTPKSLLISIGDRVTITCKASQSVSSDVAWFQQKPGQSPKPLIYYASNRYTGVPDRFTGSGYGTDFTFTISSVQAEDLAVYFCGQDYTSPRTFGGGTKLEIKRA
modifications: Mac2-158 VH sequence; Mac2-158 VL sequence
notes: IQ Products
density of CD163 receptors per monocyte (citrate stabilized whole blood): 17,726 | fraction of CD14+ monocytes stained positive for CD163 (citrate stabilized whole blood): 83.97% | fraction of CD14+ monocytes stained positive for CD163 (freshly drawn EDTA stabilized whole blood): 84.06% and 87.23% | density of CD163 receptors per monocyte (heparin stabilized whole blood): 18,929 | fraction of CD14+ monocytes stained positive for CD163 (heparin stabilized whole blood): 84.43%
